Data taken from patent US20120122958, “TRANSCRIPTIONAL REPRESSION LEADING TO PARKINSON'S DISEASE” (published 2012).

Target: PARIS (ZNF746) (Homo sapiens, UniProt Q6NUN9 SEQ:1-644)
Test: EMSA; competed by unlabeled WT oligo
Details: tags: GST; label: 32P

Sequence of PARIS (ZNF746) (Q6NUN9 whole entry): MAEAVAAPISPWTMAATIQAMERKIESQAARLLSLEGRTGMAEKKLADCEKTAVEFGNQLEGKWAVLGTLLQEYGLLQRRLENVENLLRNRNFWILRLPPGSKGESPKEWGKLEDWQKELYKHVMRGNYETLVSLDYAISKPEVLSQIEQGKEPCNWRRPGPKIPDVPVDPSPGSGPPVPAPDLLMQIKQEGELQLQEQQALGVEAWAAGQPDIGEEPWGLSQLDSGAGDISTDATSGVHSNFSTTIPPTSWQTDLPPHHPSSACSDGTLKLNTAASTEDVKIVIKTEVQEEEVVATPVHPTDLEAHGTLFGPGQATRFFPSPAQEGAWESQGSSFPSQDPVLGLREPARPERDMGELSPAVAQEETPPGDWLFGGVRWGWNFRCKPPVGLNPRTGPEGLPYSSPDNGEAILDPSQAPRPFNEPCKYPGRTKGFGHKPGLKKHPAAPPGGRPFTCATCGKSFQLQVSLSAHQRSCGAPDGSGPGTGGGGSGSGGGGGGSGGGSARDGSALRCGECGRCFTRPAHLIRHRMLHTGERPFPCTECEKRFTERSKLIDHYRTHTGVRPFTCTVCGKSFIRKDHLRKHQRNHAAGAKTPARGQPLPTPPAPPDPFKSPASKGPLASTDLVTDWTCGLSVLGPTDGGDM

Binder	binding result
IRS1-WT (dsDNA) DNA 1: AGTGTGTTGGTATTTTTCCCTCAGTTC DNA 2: GAACTGAGGGAAAAATACCAACACACT	binds
IRS3-WT (dsDNA) DNA 1: GCCACTTGCTTGTTTTGGAAGGAAAAT DNA 2: ATTTTCCTTCCAAAACAAGCAAGTGGC	binds
IRS2-WT (dsDNA) DNA 1: ACATACAGGCTATTTTGTTGATTAAAC DNA 2: GTTTAATCAACAAAATAGCCTGTATGT	binds
